Measured values published in US20150307603A1 (MODIQUEST B V, published 2015).
Non-standard residues stand in square brackets, D forms with d. No end group written: not given here. Cit = NC(=O)NCCC[C@H](N)C(=O)O

Key:
[1] = biological target: T1, human recombinant histone 2A (human); experiment: ELISA, Ab 2 ug/well
T1 construct: Non-deiminated; also called H2A
Excerpt: (§1) The resulting OD (y-axis) is a measure for antibody binding. H1-recombinant histone 1; H1/p2-huPAD2 recombinant histone 1; H1/p4-huPAD4 recombinant histone 1, and so forth (x-axis).

[2] = biological target: T2, huPAD2-deiminated human recombinant histone 2A (human); experiment: ELISA, Ab 2 ug/well
T2 construct: also called H2A/p2; histone 2A/p2
Excerpt: as §1

[3] = biological target: T3, huPAD4-deiminated human recombinant histone 2A (human); experiment: ELISA, Ab 2 ug/well
T3 construct: also called H2A/p4; histone 2A/p4
Excerpt: as §1

[4] = biological target: T4, human recombinant histone 2B (human); experiment: ELISA, Ab 2 ug/well
T4 construct: Non-deiminated; also called H2B
Excerpt: as §1

[5] = biological target: T5, huPAD2-deiminated human recombinant histone 2B (human); experiment: ELISA, Ab 2 ug/well
T5 construct: also called H2B/p2
Excerpt: as §1

[6] = biological target: T6, huPAD4-deiminated human recombinant histone 2B (human); experiment: ELISA, Ab 2 ug/well
T6 construct: also called H2B/p4
Excerpt: as §1

[7] = biological target: T7, huPAD2-deiminated human recombinant histone 3 (human); experiment: ELISA, Ab 2 ug/well
T7 construct: also called H3/p2; histone 3/p2
Excerpt: as §1

[8] = biological target: T8, huPAD4-deiminated human recombinant histone 3 (human); experiment: ELISA, Ab 2 ug/well
T8 construct: also called H3/p4
Excerpt: as §1

[9] = biological target: T9, human recombinant histone 4 (human, UniProt P62805 2-103); experiment: ELISA, Ab 2 ug/well
Excerpt: as §1

[10] = biological target: T10, CFC-1; experiment: ELISA, Ab 2 ug/well
T10 construct: Positive control for anti-citrulline reactivity; also called cfc1 XG; Cfc1-peptide
Excerpt: as §1

[11] = biological target: T10, CFC-1; experiment: ELISA, Ab 0.4 ug/well
Experimental: (§2) Biotin and citrulline-containing peptides derived from fibrinogen and vimentin were immobilized on NEUTRAVIDIN®-coated 96-well ELISA plates (0.3 μg/well). CFC-1 and CFC-0 were coated at the same concentration and served as positive and negative controls, respectively, for specific anti-citrulline reactivity and as coating controls. Non-coated wells were used to test for aspecific binding of the antibodies. […] Detection of bound anti-citrulline antibodies was performed by incubating the wells with rabbit anti-human HRP (1:2000) for 1 hour at RT followed by incubation with TMB substrate. The resulting OD (y-axis) is a measure for antibody binding.
(§3) Biotin-labeled and citrulline-containing fibrinogen and vimentin peptides (Table 5) were also tested for reactivity with the therapeutic antibodies. Peptides were coated on 96-well NEUTRAVIDIN®-ELISA plates.

[12] = biological target: T11, msFibα XH (mouse, X at position 15 = citrulline; biotin-labelled); experiment: ELISA, Ab 0.4 ug/well
T11 peptide: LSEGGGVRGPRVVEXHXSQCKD
Experimental: as §2, §3

[13] = biological target: T12, msFibα XG (mouse, X at position 8 = citrulline; biotin-labelled); experiment: ELISA, Ab 0.4 ug/well
T12 peptide: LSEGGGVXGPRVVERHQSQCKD
Experimental: as §2, §3

[14] = biological target: T13, huFibα XH (human, X at position 15 = citrulline; biotin-labelled); experiment: ELISA, Ab 0.4 ug/well
T13 peptide: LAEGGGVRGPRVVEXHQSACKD
Experimental: as §2, §3

[15] = biological target: T14, huFibα XG (human, X at position 8 = citrulline; biotin-labelled); experiment: ELISA, Ab 0.4 ug/well
T14 peptide: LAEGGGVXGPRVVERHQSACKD
Experimental: as §2, §3

[16] = biological target: T15, msFibβ XG (mouse, also: biotin-labelled); experiment: ELISA, Ab 0.4 ug/well
T15 construct: also called mouse fibrinogen β peptide
T15 peptide: EPTDSLDA[Cit]GHRPVDRR
Experimental: as §2, §3

[17] = biological target: T16, msVim XS/XL (mouse, also: biotin-labelled); experiment: ELISA, Ab 0.4 ug/well
T16 construct: also called mouse vimentin peptide
T16 peptide: YVT[Cit]SSAV[Cit]L[Cit]SSVP
Experimental: as §2, §3

[18] = biological target: T2, huPAD2-deiminated human recombinant …; experiment: ELISA, Ab 0.0032 ug/well
Excerpt: as §1

[19] = biological target: T3, huPAD4-deiminated human recombinant …; experiment: ELISA, Ab 0.0032 ug/well
Excerpt: as §1

[20] = biological target: T5, huPAD2-deiminated human recombinant …; experiment: ELISA, Ab 0.0032 ug/well
Excerpt: as §1

[21] = biological target: T6, huPAD4-deiminated human recombinant …; experiment: ELISA, Ab 0.0032 ug/well
Excerpt: as §1

[22] = biological target: T7, huPAD2-deiminated human recombinant …; experiment: ELISA, Ab 0.0032 ug/well
Excerpt: as §1

[23] = biological target: T8, huPAD4-deiminated human recombinant …; experiment: ELISA, Ab 0.0032 ug/well
Excerpt: as §1

[24] = biological target: T9, human recombinant histone 4; experiment: ELISA, Ab 0.0032 ug/well
Excerpt: as §1

[25] = biological target: T10, CFC-1; experiment: ELISA, Ab 0.000128 ug/well
Experimental: as §2, with “histone 2A” for “fibrinogen and vimentin”

[26] = biological target: T17, peptide no. 2 (human histone 2A) (human, also: biotin-labelled); experiment: ELISA, Ab 0.000128 ug/well
T17 construct: also called peptide 2
T17 peptide: AKAKS[Cit]SSRAGL
Experimental: as §2, with “histone 2A” for “fibrinogen and vimentin”

[27] = biological target: T18, peptide no. 6 (human histone 2A) (human, also: biotin-labelled); experiment: ELISA, Ab 0.000128 ug/well
T18 construct: also called peptide 6
T18 peptide: VHRLL[Cit]KGNYSE
Experimental: as §2, with “histone 2A” for “fibrinogen and vimentin”

[28] = biological target: T19, peptide no. 8 (human histone 2A) (human, also: biotin-labelled); experiment: ELISA, Ab 0.000128 ug/well
T19 construct: also called peptide 8
T19 peptide: AGNAA[Cit]DNKKTR
Experimental: as §2, with “histone 2A” for “fibrinogen and vimentin”

[29] = biological target: T20, peptide no. 10 (human histone 2A) (human, also: biotin-labelled); experiment: ELISA, Ab 0.000128 ug/well
T20 construct: also called peptide 10
T20 peptide: TRIIP[Cit]HLQLAI
Experimental: as §2, with “histone 2A” for “fibrinogen and vimentin”

B1: RhmAb2.102 (antibody, human IgG1, lambda)
heavy: not shown
light: QSVLTQPPSMSAAPGQKVTISCSGSSSNIGNNYVSWYQQVPGTAPKLLIYDDNKRPSGIPGRFSGSKSATSATLGITGLQAGDEADYYCGSWDDNLSVVLFGGGTKLTVLGQPKAAPSVTLFPPSSEELQANKATLVCLISDFYPGAVTVAWKADSSPVKAGVETTTPSKQSNNKYAASSYLSLTPEQWKSHRSYSCQVTHEGSTVEKTVAPTECS
notes: Human IgG1 lambda; also called Rhm2.102
OD [1]: 0.115 OD450
OD [2]: 3.18 OD450
OD [3]: 3.13 OD450
OD [4]: 0.076 OD450
OD [5]: 0.086 OD450
OD [6]: 0.069 OD450
OD [7]: 1.94 OD450
OD [8]: 0.439 OD450
OD [9]: 0.208 OD450
OD [10]: 3.38 OD450
OD [11]: 3.79 OD450
OD [12]: 0.076 OD450
OD [13]: 0.773 OD450
OD [14]: 0.09 OD450
OD [15]: 0.521 OD450
OD [16]: 1.67 OD450
OD [17]: 1.45 OD450
OD [18]: 0.161 OD450
OD [19]: 0.135 OD450
OD [20]: 0.052 OD450
OD [21]: 0.052 OD450
OD [22]: 0.08 OD450
OD [23]: 0.065 OD450
OD [24]: 0.06 OD450
OD [25]: 0.749 OD450
OD [26]: 0.075 OD450
OD [27]: 0.054 OD450
OD [28]: 0.055 OD450
OD [29]: 0.057 OD450
